Consider one substance from paper PMC2132475.

This assay has as its target α-dystroglycan on embryonic Xenopus myotomal muscle cells (Xenopus (endogenous in embryonic Xenopus muscle cells)). The assay can be described thus: immunostaining of cells or tissue.

“laminin fragment E3 (domain or fragment)”: the percent inhibition of mAb IIH6 binding (at 33 nM E3) turned out to be 41% and the percent inhibition of mAb IIH6 binding (at 3.3 μM E3) was 94%.
